This is an account of results in IntAct's records for PubMed 21139566.

To fix the notation:
B1: Structural maintenance of chromosomes protein 3 (Saccharomyces cerevisiae), P47037 (parent)
chain: MYIKRVIIKGFKTYRNETIIDNFSPHQNVIIGSNGSGKSNFFAAIRFVLSDDYSNLKREERQGLIHQGSGGSVMSASVEIVFHDPDHSMILPSGVLSRGDDEVTIRRTVGLKKDDYQLNDRNVTKGDIVRMLETAGFSMNNPYNIVPQGKIVALTNAKDKERLQLLEDVVGAKSFEVKLKASLKKMEETEQKKIQINKEMGELNSKLSEMEQERKELEKYNELERNRKIYQFTLYDRELNEVINQMERLDGDYNNTVYSSEQYIQELDKREDMIDQVSKKLSSIEASLKIKNATDLQQAKLRESEISQKLTNVNVKIKDVQQQIESNEEQRNLDSATLKEIKSIIEQRKQKLSKILPRYQELTKEEAMYKLQLASLQQKQRDLILKKGEYARFKSKDERDTWIHSEIEELKSSIQNLNELESQLQMDRTSLRKQYSAIDEEIEELIDSINGPDTKGQLEDFDSELIHLKQKLSESLDTRKELWRKEQKLQTVLETLLSDVNQNQRNVNETMSRSLANGIINVKEITEKLKISPESVFGTLGELIKVNDKYKTCAEVIGGNSLFHIVVDTEETATLIMNELYRMKGGRVTFIPLNRLSLDSDVKFPSNTTTQIQFTPLIKKIKYEPRFEKAVKHVFGKTIVVKDLGQGLKLAKKHKLNAITLDGDRADKRGVLTGGYLDQHKRTRLESLKNLNESRSQHKKILEELDFVRNELNDIDTKIDQVNGNIRKVSNDRESVLTNIEVYRTSLNTKKNEKLILEESLNAIILKLEKLNTNRTFAQEKLNTFENDLLQEFDSELSKEEKERLESLTKEISAAHNKLNITSDALEGITTTIDSLNAELESKLIPQENDLESKMSEVGDAFIFGLQDELKELQLEKESVEKQHENAVLELGTVQREIESLIAEETNNKKLLEKANNQQRLLLKKLDNFQKSVEKTMIKKTTLVTRREELQQRIREIGLLPEDALVNDFSDITSDQLLQRLNDMNTEISGLKNVNKRAFENFKKFNERRKDLAERASELDESKDSIQDLIVKLKQQKVNAVDSTFQKVSENFEAVFERLVPRGTAKLIIHRKNDNANDHDESIDVDMDAESNESQNGKDSEIMYTGVSISVSFNSKQNEQLHVEQLSGGQKTVCAIALILAIQMVDPASFYLFDEIDAALDKQYRTAVATLLKELSKNAQFICTTFRTDMLQVADKFFRVKYENKISTVIEVNREEAIGFIRGSNKFAEV
partner: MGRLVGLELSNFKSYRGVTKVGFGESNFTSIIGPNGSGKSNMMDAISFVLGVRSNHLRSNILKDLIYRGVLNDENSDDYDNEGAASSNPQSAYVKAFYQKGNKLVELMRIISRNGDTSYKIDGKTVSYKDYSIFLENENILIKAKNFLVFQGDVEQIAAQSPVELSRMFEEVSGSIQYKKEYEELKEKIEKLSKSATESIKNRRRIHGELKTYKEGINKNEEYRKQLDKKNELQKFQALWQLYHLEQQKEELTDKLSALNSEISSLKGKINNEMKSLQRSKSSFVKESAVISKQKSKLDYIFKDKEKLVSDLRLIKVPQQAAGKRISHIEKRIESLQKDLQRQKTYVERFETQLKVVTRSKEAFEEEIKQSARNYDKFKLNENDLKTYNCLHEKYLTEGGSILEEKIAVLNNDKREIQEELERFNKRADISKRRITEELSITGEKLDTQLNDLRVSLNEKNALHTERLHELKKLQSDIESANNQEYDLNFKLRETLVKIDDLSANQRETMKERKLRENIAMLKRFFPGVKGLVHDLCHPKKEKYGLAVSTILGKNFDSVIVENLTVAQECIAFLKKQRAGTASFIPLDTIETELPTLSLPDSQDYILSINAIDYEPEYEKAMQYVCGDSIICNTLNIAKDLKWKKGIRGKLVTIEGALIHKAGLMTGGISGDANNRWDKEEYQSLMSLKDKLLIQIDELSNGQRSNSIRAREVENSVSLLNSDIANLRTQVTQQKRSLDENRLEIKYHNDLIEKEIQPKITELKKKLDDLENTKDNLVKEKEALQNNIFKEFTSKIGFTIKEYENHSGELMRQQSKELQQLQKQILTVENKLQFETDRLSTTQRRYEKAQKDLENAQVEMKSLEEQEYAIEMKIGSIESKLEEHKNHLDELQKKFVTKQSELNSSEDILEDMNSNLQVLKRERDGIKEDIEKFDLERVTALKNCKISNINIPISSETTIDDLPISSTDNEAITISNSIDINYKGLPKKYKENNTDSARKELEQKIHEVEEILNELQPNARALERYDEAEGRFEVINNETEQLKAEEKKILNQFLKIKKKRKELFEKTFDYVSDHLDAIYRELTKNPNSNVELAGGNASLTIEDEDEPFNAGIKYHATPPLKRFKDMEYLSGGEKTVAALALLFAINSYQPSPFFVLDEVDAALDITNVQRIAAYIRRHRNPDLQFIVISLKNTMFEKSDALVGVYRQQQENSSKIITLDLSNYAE
B2: Structural maintenance of chromosomes protein 1 (Saccharomyces cerevisiae), P32908 (parent)
chain: B1 partner
partner: B1 chain

The first test covers variants of B1. The settings on record: with smc1_yeast SMC1, P32908.
As to R669A, the “effect of a mutation on the interaction” value is given as “decreasing interaction”. Take R665A: the “effect of a mutation on the interaction” value is given as “decreasing interaction”. Same read-out and setting: in the case of K668A it was “decreasing interaction”.

In the next test the parent is B2. The settings on record: with smc3_yeast SMC3, P47037.
M665R: the “effect of a mutation on the interaction” value is listed as “disrupting interaction”.

The variants in another test derive from B2. The following applies: with smc3_yeast SMC3, P47037. The source holds these as a separate data set.
For the variant K554D, the “effect of a mutation on the interaction” value was “decreasing interaction”. As to K661D, the “effect of a mutation on the interaction” value was “decreasing interaction”.
